24 sequences from the DeepSol protein solubility set can be followed below.

The nature of the data set: soluble on expression in E. coli; label from the status in PepcDB or PDB records.
On to “MTQRLHRDRHDRGVRGPLFSSALPRYCSRRQRFDATVLEAYAPLQQRYAAQLTHLDIAVDTVPRMRLGFDPALVPDEVVADGPVPLGRVIPAGVDSSGHPTRARLVLFRMAIEQRVVSAQERRELVTTVLTALVANYLNISPTDIDPNFQW”, for which the “soluble on expression in E. coli” value is “not soluble”.

With “MTQRLKDKLAVITGGANGIGRAIAERFAVEGADIAIADLVPAPEAEAAIRNLGRRVLTVKCDVSQPGDVEAFGKQVISTFGRCDILVNNAGIYPLIPFDELTFEQWKKTFEINVDSGFLMAKAFVPGMKRNGWGRIINLTSTTYWLKIEAYTHYISTKAANIGFTRALASDLGKDGITVNAIAPSLVRTATTEASALSAMFDVLPNMLQAIPRLQVPLDLTGAAAFLASDDASFITGQTLAVDGGMVRH”, the “soluble on expression in E. coli” value was “soluble”.

Consider “MTQTVKLDILSDPICPWCYIGKTQLDKALAAIPDHPFVIEWHPFQLNPDMAPEGMDRREYLERKFGGKEGAVRAYAPVVEHAEKAGLAIDFEAMQRTPNTLDAHRLIHWAGVEGKQTEAVDALFAAYFTEGRDIGDAEVLADIADSIGMDAAVVLKLLKSDADRDDIAKRDSHSREMGVSSVPTFIVANQHAVPGAQPPELWEQVIREIMSQIETTSA”, for which the “soluble on expression in E. coli” value is listed as “not soluble”.

In the case of “MTRHALAYVAGAYEHPLRHAPDKSVAQLHAESARGALDDAGLSFADVDGYFCAGDAGLGPAYMVDYLNLTPRHVDGTEIGGGSYLAQIGHAAHAIAAGKCSVALITLAGRPRSEGQATGTEPRIPGPDRPSAPWDSAYRWTIGTIYGNFARRHMHEYGTTSEQLAWVKVAASHHAQHNPNALLRKVYTVDDVLGSPMVADPLHRLDCCVITDGGGALVIVAPEVARSLNRPRIKVV”, the “soluble on expression in E. coli” value is on record as “not soluble”.

Consider “MTRLSSGAKLNHPESSVCSPVYSWSTCIRKTSPVLFSSTIFALRRMTAPSAPCAQAPQLTRRWAKIVVENRTGSHFKIQVLHEYTGEQTNDSGYIDFKPDDRITVFEKIYYNTGFFTTGVDNWKVHGTKLIQVETEGTIARNIFGKFFVDGLPYSTGHGAFAKWKKHTLRADDDGQETVIKVFQTEVQFISPSGRSVTTFNTLGENILPFSQNPQKQ”, for which the “soluble on expression in E. coli” value was “not soluble”.

As to “MTRPPLPPFTAETAAEKVRLAENGWNNRSADVVTPAYSDDSRWRNRAEFVTGHDDIHAFLTRKWDKELDYRLIKELWAWSGNRIAVRYAYEWHDDSGNWFRSYGNENWEFDEDGRMSARHTSLNDLPITEDERLFHWPLGPRPDGHPGLTDLGLLEHHHHHH”, the “soluble on expression in E. coli” value is given as “not soluble”.

In the case of “MTSACGFHLRGDYLLPDEVHEISLTSFDQYSSLTRDVQKQLRMNGIRQVAPTTVTPSLDLISESLNERTLSLYQNSRAAEKELTYNVSYSVLIPGHDLKTYTTTVNRNYLDNPLTALAKSVERDMIEEEMRAQAAEQILRQMARLKADDAPVETSDVITHDDETESKVTTKEVIKSMSTTAETTQLEHHHHHH”, the “soluble on expression in E. coli” value is “soluble”.

Regarding “MTSIGTGYDLSNSVFSPDGRNFQVEYAVKAVENGTTSIGIKCNDGVVFAVEKLITSKLLVPQKNVKIQVVDRHIGCVYSGLIPDGRHLVNRGREEAASFKKLYKTPIPIPAFADRLGQYVQAHTLYNSVRPFGVSTIFGGVDKNGAHLYMLEPSGSYWGYKGAATGKGRQSAKAELEKLVDHHPEGLSAREAVKQAAKIIYLAHEDNKEKDFELEISWCSLSETNGLHKFVKGDLLQEAIDFAQKEINGDDDEDEDDSDNVMSSDDENAPVATNANATTDQEGDIHLE”, the “soluble on expression in E. coli” value was “soluble”.

Take “MTSKSVATPALDPAFQQLTAFASVHNFILVKGQADKQDLAGYNIPKLKELIVAYHNLYRSKHGAPPLVADPVMDVAAKRWADEMAKSGWISHEKPRKYGENVAMFCQSGCWPLPQTLAQAMVHLFYIEGIGYDYSSFKPELLKENGHFTQIVWKSSRKIGVGISIGKSSQPPYIPTMFHCVKFDPPGNVLAQQYYLSNVQRPTA”: the “soluble on expression in E. coli” value is “not soluble”.

Turning to “MTSPITLDALKVLDAIERKKSFAAAADELFRVPSAISYTVNKLEDDLGIALFDRSKRKAELTSVGIMLVEQGRLILKATDELTHMAKQSAEGWELELRICIDSILLFQPIYTLIAQFQQEYPWINIRVTEEVFGGTWDALVAGRSDLIIGATGEPYNSDFSLYKLGNVDFVFVVAKDHALIKEQQPLSNEIIKKYPSVVVADSSRNLPGRSAGLLDGQSRITVSSIEKKIEAQLLGLGVGFLPIHRIKSQLESGQLVILALETTENRNSELCMAWRNDNQGKALAWFVSNIQQMAVKLI”, the “soluble on expression in E. coli” value is “not soluble”.

In the case of “MTSTKAYVLALAGCTNSGKSTLAKEFQRFFGAGETTIINQDEFYKTENEVEKIYHPDAEHLTDEGYYWSFDEKEAINIDQFRQRILNESKVYKNVIIDGNMITEMDEIVDLCDRIVVMTLDFKTCKRRREARTDYVPADTPGYFVNVAFPAYVRHLERARQRSRTDSRLTFIDVSESKFDDKNKSIVNFRQQILDDHIKLTDEVIDVKVVDQLVSHPSCGAISTFNGVTRDNHGGRDVSNLSYDCHDLMAYKKLRGICAEIRAEYPDVKKIAIFHRLGKVDIGESSVIISTSSPHRKTAIQATEKCIDLLKEHAPIFKYEEYSNGEVDGVWKSNIEDSKQ”, the “soluble on expression in E. coli” value is reported as “not soluble”.

With “MTSYKPEYLIPNLLDLVAEGEGLRIEFKRLIHSAPKIARSITAFANTSGGVILIGVDDDRRIVGIQSEKEALQVIDEAMRFHIEPKPRIEVHFEEFKRRMVLLVDIPKSPERPHFHIEPLIRRDTGKHGVERRVFIRDGSHNKAASDDRIELMLSSREPLKVAFTGRERCLLDWLNEHDRITAEEFADSAGIPMKEARRILVSLVRAGALRLDTANGDNSYTLAHRLEHHHHHH”, the “soluble on expression in E. coli” value is recorded as “soluble”.

For “MTTAKPNTVEQFEHVIDICREVFQKKLHDYGASWRVMRPSSLTDQLYIKANRIRNIQMKGLSKVDEGVESEFIGVVNYGVIALIQLELGVADTPKMETEEALRLYDLKIREAMSLMLDKNHDYGEAWRQMRVSSFADLILTKVFRTKEIEDLGGDTYISEGVDANYMDMINYAIFALIQLNG”, the “soluble on expression in E. coli” value was “not soluble”.

Consider “MTTIGTRKRVAVVTGASSGIGEATARTLAAQGFHVVAVARRADRITALANQIGGTAIVADVTDDAAVEALARALSRVDVLVNNAGGAKGLQFVADADLEHWRWMWDTNVLGTLRVTRALLPKLIDSGDGLIVTVTSIAAIEVYDGGAGYTAAKHAQGALHRTLRGELLGKPVRLTEIAPGAVETEFSLVRFDGDQQRADAVYAGMTPLVAADVAEVIGFVATRPSHVNLDQIVIRPRDQASASRRATHPVR”, for which the “soluble on expression in E. coli” value is “not soluble”.

As for “MTTIVPTSEENPFLAVVRFTSQLAWADAGPEAAEPEITRLCREAEESMVAEKWLELSSLMVTSAELVSSKISEKDLECTYTIICSIVKNAKSPEQVLEMVKAIASKVAQQPSDKASLRLKILFNLYNLVDHPYARFQVYMKALTLAVDGKVTEYIVSSFKKIDNFLKEWNIDIKDQRELFLAIANVLKENKSLVNESLKFLTKYLATFSNEDAQVLDEAKEEAVRAVIEFVKASSIFQCDLLDLPAVAQLEKDAKYAPVYQLLKIFLTQRLNAYTEFQNANSGFLQSYGLSNEDCVTKMRLLSLVDLASDESGKIPYTSIKDTLQVNEQDVELWIVKAITAKLIESALPNVNLGQSNGNLSEQSLRLGSIITTIESNKVTEEGSQASSSSAAAIQGLSVR”, the “soluble on expression in E. coli” value was “soluble”.

Consider “MTTKEKVKALWQLCFDDNEEFVEMYFRLRYKNEINIAIESGDEIVSALQMIPYPMTFCGDTVQTSYISGACTHPDFRGNGVMRELLSQAFAKMLRNGTYFSTLIPAEPWLFDYYTRMGYASVFQYSVKEITVPEFIPSKEITVTSEIGCQKEVYEYLNSKLSGRTCCIQHSFEDFQVVMADLILSDGILVTARSENQINGLAIVYRRDKQLIISELFAETKDAEHSLLHHIKQFTGCRHMTQLLPPEKEQTQYPLGMARIINAKEVLQLYASAFPEDEMQLEVSDKQLSVNNGYYYLCNGKCMYSTERLPGAHIPMNISELTGRIFQALRPYMSLMLNK”, for which the “soluble on expression in E. coli” value is given as “not soluble”.

“MTTLLNPYFGEFGGMYVPQILMPALNQLEEAFVSAQKDPEFQAQFADLLKNYAGRPTALTKCQNITAGTRTTLYLKREDLLHGGAHKTNQVLGQALLAKRMGKSEIIAEVGAGNHGVASALASALLGLKCRIYMGAKDVERQSPNVFRMRLMGAEVIPVHSGSATLKDACNEALRDWSGSYETAHYMLGTAAGPHPYPTIVREFQRMIGEETKAQILDKEGRLPDAVIACVGGGSNAIGMFADFINDTSVGLIGVEPGGHGIETGEHGAPLKHGRVGIYFGMKAPMMQTADGQIEESYSISAGLDFPSVGPQHAYLNSIGRADYVSITDDEALEAFKTLCRHEGIIPALESSHALAHALKMMREQPEKEQLLVVNLSGRGDKDIFTVHDILKARGEI”: the “soluble on expression in E. coli” value is listed as “soluble”.

In the case of “MTTNIAANSGGIVFHFLGTGGAQQVPAFGCECEVCQQAQRNESKRRRACCAAITTKDRIILIDAGLPELSPYLLPYPQRHILLTHYHMDHVQGLFPLRWGYGEPIPVFGPPDEAGCDDLFKHPGILHFQKPLMAFQPFELDGIRITPVPLIHSKLTYGYLIQTPTHTLAYLTDTIGLPPETTQFLASHTLDYAIVDCSHPPQTMLPRNHNDITRALEIFTQLNPKQLYLTHISHELDRWLQTQTLLPENVHAAYDGLVLGLLEHHHHHH”, the “soluble on expression in E. coli” value is given as “not soluble”.

As to “MTTPNTQLWEVFIRSRNGLAHKHVGSLHAADATLALQAARDIYTRRGEGLSIWVVPSNAITASDPAEAGMLFEPAESKIYRHPTFYEVPDEVGHM”, the “soluble on expression in E. coli” value is “not soluble”.

Take “MTTRLEWAKASPDAYAAMLGLEKALAKAGLERPLIELVYLRTSQINGCAYCVNMHANDARKAGETEQRLQALCVWQETPYFTPRERAALAWTEQLARLSQGALPHGLLDELREHFDDKEIAELTLAVSAINAWNRFGVGMGMQPE”: the “soluble on expression in E. coli” value is recorded as “soluble”.

On to “MTTSQMIADFTTLAIQAGGWMELDRLYLQNRLLSMIGEQELGEVDIRPVATPAADLAEQLCQVASANQLVKTEQQKEQFMVQLMDLLTPPPSVVNAFFAQHYAKEPQEATEYFYQLCQKNGTVIEQEEPVVFSTVYGDFLANKVHSEASKATLSAQSYPRCEWCMATEGYQGSQQFPATTNHRVIRMNLDGESWGFSFVKQAQYQQQGVIAFEKHQSAKRSIKTFQQLLKIVEVFPHYFAGIDADFEQNEHVYYQTGLQQFPLAEASISEYVELANYPLINAGMVNWPVETFRLEGPNASEVAQAANDIFEQWQMLKLPTDEIQIVARRKELLYVMDLIFSRPQAKPSLTLAEVQGLTTWNNQKTQALETVASAYQQRLKEASAFAETSEGKAAFLAMVAPVTH”, for which the “soluble on expression in E. coli” value is on record as “not soluble”.

Take “MTTTTTFKGVDPNSRNSSRVLRPPGGGSNFSLGFDEPTEQPVRKNKMASNIFGTPEENQASWAKSAGAKSSGGREDLESSGLQRRNSSEASSGDFLDLKGEGDIHENVDTDLPGSLGQSEEKPVPAAPVPSPVAPAPVPSRRNPPGGKSSLVLG”: the “soluble on expression in E. coli” value is listed as “soluble”.

For the sequence “MTTYAALLRGINVGGNKKVPMAELRTLLQGLGYGGVATYLQSGNAVFTSDHGDEQSLAAEVGQAIEKRFGFTVDVLVRDHAYLKAVREACPFPAAELEAKQLHVTYFSGPVDAERFASLDQPAFLPEEFRLGDRALYLYAPDGLGRSKLGETLARPRLLKGIVATSRNWNTVVKLEELTGA”, the “soluble on expression in E. coli” value is “not soluble”.

Turning to “MTVEEYQQTVAQWLEVAKDPHFNKAYTELTYKPMREMVTYLQDHDFKVYIVSGGGVDFMRTWAPEVYGIPEEQIIGSALKYKYDYNNSNPTVTKLGEILTIDDKAGKVENIQHIIGKKPVLAIGNSDGDHAMMQWATSQPNSMAMIVHHTDEAREWKYDR”, the “soluble on expression in E. coli” value was “not soluble”.
